In IntAct's records for PubMed 16443932:

Target: cdc42_human CDC42 (UniProt P60953)
UniProt P60953, sequence (P60953 whole entry, looked up): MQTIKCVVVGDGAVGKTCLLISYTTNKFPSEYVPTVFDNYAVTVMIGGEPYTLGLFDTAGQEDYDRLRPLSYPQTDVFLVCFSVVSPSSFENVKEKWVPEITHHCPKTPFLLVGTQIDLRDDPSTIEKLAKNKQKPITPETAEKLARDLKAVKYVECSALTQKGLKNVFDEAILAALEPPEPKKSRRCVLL

effect of a mutation on the interaction: disrupting interaction strength
Substance: Phospholipid-transporting ATPase ABCA1 (Homo sapiens), O95477 K939M
